According to patent US20250066503A1, “CELL INJURY INDUCING THERAPEUTIC DRUG FOR USE IN CANCER THERAPY” (CHUGAI SEIYAKU KABUSHIKI KAISHA, priority 2016, published 2025):

Tested on: LLC1/hGPC3 syngeneic tumor
Assay: In vivo drug efficacy, human CD3εδγ gene-modified mouse model
Parameters: species or system human CD3εδγ gene-modified mice
Settings: 5 mg/kg Day 11 and Day 14, compared to solvent group or anti-human GPC3, anti-mouse CTLA-4, PD-1, PD-L1 antibodies at 25 mg/kg
Protocol: Methods called an NOD scid/T cell-injected model, a humanized NOG mouse model, and a human CD3εδγ gene-modified mouse model were used in the in vivo drug efficacy evaluation. Assay using an NOD scid/T cell-injected model was performed as follows. […] T cells expanded by culturing human PBMCs in vitro were injected into the NOD scid mice with confirmed tumor establishment. The mice were treated by administering bispecific antibody-38 and bispecific antibody-30, -31, -32, or -33. Assay using a humanized NOG mouse model was performed as follows. CD34-positive hematopoietic stem cells derived from umbilical cord blood were transplanted into NOG mice by tail vein injection. Human T cells are constantly supplied in the mice, which are called humanized NOG mice. The PC-10 cell line was transplanted into humanized NOG mice. The humanized NOG mice with confirmed establishment of PC-10 tumor were treated by administering antibody-38. Assay using a human CD3εδγ gene-modified mouse model was performed as follows. Cells of mouse-derived cell line forced to express human GPC3 were transplanted into a human CD3εδγ gene-modified mouse model, which had been prepared according to Reference Example 10. The human CD3εδγ gene-modified mice with confirmed tumor establishment were treated by administering antibody-38. […]

B1: antibody-38: anti-human CD3ε chain and anti-human GPC3 bispecific antibody; H chains SEQ ID NO: 385 and 402, common L chains SEQ ID NO: 410 (antibody)
heavy 1: QVQLVQSGAEVKKPGASVTVSCKASGYTFTDYEMHWIRQPPGEGLEWIGAIDGPTPDTAYSEKFKGRVTLTADKSTSTAYMELSSLTSEDTAVYYCTRFYSYTYWGQGTLVTVSSASTKGPSVFPLAPCSRSTSESTAALGCLVKDYFPEPVTVSWNSGALTSGVHTFPAVLQSSGLYSLSSVVTVPSSSLGTQTYTCNVDHKPSNTKVDKRVESKYGPPCPPCPAPEFRGGPKVFLFPPKPKDTLMISRTPEVTCVVVDVSQEDPEVQFNWYVDGVEVHNAKTKPREEQFASTYRVVSVLTVLHQDWLNGKEYKCKVSNKGLPSSIEKTISKAKGQPREPQVYTLPPSQEEMTKNQVSLTCLVKGFYPSDIAVEWESNGQPENNYKTTPPVLDSDGSFFLYSKLTVDKSRWQEGNVFSCSVMHEALHNHYTQESLSLSP
heavy 2: QVQLVESGGGVVQPGGSLRLSCAASGFTFSNAWMHWVRQAPGKGLEWVAQIKDKSQNYATYVAESVKGRFTISRADSKNSIYLQMNSLKTEDTAVYYCRYVHYAAGYGVDIWGQGTTVTVSSASTKGPSVFPLAPCSRSTSESTAALGCLVKDYFPEPVTVSWNSGALTSGVHTFPAVLQSSGLYSLSSVVTVPSSSLGTKTYTCNVDHKPSNTKVDKRVESKYGPPCPPCPAPEFRGGPKVFLFPPKPKDTLMISRTPEVTCVVVDVSQEDPEVQFNWYVDGVEVHNAKTKPREEQFASTYRVVSVLTVLHQDWLNGKEYKCKVSNKGLPSSIEKTISKAKGQPREPQVYTLPPSQKEMTKNQVSLTCLVKGFYPSDIAVEWESNGQPENNYKTTPPVLDSDGSFFLYSKLTVDKSRWQEGNVFSCSVMHEALHNHYTQKSLSLSP
light: DIVMTQSPLSLPVTPGEPASISCRSSQPLVHSNRNTYLHWYQQKPGQAPRLLIYKVSNRFSGVPDRFSGSGSGTDFTLKISRVEAEDVGVYYCGQGTQVPYTFGQGTKLEIKRTVAAPSVFIFPPSDEQLKSGTASVVCLLNNFYPREAKVQWKVDNALQSGNSQESVTEQDSKDSTYSLSSTLTLSKADYEKHKVYACEVTHQGLSSPVTKSFNRGEC
modifications: An artificially generated sequence
With B1 the anti-tumor effect was “evident anti-tumor effect”.
